Measured values published in patent US20170240633A1 (published 2017).
Changes are numbered by the printed parent chain.

B1: anti-TIM-3 antibody clone A11 (antibody, V domains shown)
VH: QVQLQQWGAGLLKPSETLSLTCAVYGGSFSGYYWSWIRQPPGKGLEWIGEINHSGSTNYNPSLKSRVTISVDTSKNQFSLKLSSVTAADTAVYYCARGYVAGFDYWGQGTLVTVSS
VL: QSVVTQPPSVSAAPGQKVTISCSGSSSNIGNNYVSWYQQLPGTAPKLLIYGNNWRPSGIPDRFSGSKSGTSATLAISGLQTGDEADYYCETWDSSLSAGVFGGGTKLTVL
B2: anti-TIM-3 antibody clone G6 (antibody, V domains shown)
VH: QVQLQESGPGLVKPSGTLSLTCAVSGGSISSSNWWSWVRQPPGKGLEWIGEIYHSGSTNYNPSLKSRVTISVDKSKNQFSLKLSSVTAADTAVYYCARVVAVAGTVDYWGQGTLVTVSS
VL: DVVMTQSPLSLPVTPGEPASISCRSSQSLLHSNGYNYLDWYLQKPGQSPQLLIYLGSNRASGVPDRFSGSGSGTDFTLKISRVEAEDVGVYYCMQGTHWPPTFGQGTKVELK
B3: anti-TIM-3 antibody clone B10 (antibody, V domains shown)
VH: QVQLQESGPGLVKASETLSLTCTVSGGSIGSSDYYWGWIRQPPGKGLEWIGSIYYSGSTYYNPSLKSRVTMSVDTPNNQFSLKLSSVTAADTAVYYCARGEHRGEFDYWGQGTLVTVSS
VL: EIVLTQSPATLSFSPGERATLSCRASQSVGSYLAWYQQRPGQAPRPLIYDATNRATGIPTRFSGSGSGTDFTLTISSLEPEDFATYYCQHRRTFGRGTKLEIK
B4: anti-TIM-3 antibody clone A3 (antibody, V domains shown)
VH: QVQLVQSGAEVKKPGASVKVSCKASGYTFTSYYMHWVRQAPGQGLEWMGIINPSGGSTSYAQKFQGRVTMTRDTSTSTVYMELSSLRSEDTAVYYCARSPGVVTALFDYWGQGTLVTVSS
VL: DIQMTQSPSFMSASVGDRVTITCRASQDIGSYLAWYQQKPGKAPKLLIYAASTLQSGVPSRFSGSGSGTDFTLTINSLQPEDFATYYCQQSYSSPPTFGPGTTLEIK
B5: anti-TIM-3 antibody clone G7 (antibody, V domains shown)
VH: EVQLVQSGAEVKKPGASVKVSCKASGYTFTSYYMHWVRQAPGQGLEWMGIINPSGGSTSYAQKFQGRVTMTRDTSTSTVYMELSSLRSEDTAVYYCARDQYSSGWYYYGMDVWGQGTTVTVSS
VL: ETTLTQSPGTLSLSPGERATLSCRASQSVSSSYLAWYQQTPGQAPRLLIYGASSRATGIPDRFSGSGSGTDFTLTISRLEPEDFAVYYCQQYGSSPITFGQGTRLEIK
B6: anti-TIM-3 antibody clone G9 (antibody, V domains shown)
VH: B5 VH with E1Q, V5Q, Q100L, S103Y, W105F
VL: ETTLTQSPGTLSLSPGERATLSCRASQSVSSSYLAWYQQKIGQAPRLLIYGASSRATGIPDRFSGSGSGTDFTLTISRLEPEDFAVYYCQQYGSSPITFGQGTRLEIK

These binders were tested against T1, human TIM-3 coupled to human Fc (human, UniProt Q8TDQ0 22-200) (assay: SPR).

| Kd [nM] | Binder |
| --- | --- |
| 1.26 | B1 |

Target: T1, human TIM-3 coupled to human Fc
Experiment: SPR
Remark: another data set of the same source

| Kd [nM] | Binder |
| --- | --- |
| 2.52 | B2 |
| 0.26 | B3 |
| 0.44 | B4 |
| 0.62 | B5 |
| 0.63 | B6 |
